Laboratory results taken from PMC2562705 (Biochemistry, 2008).
Where two headings read alike, the source gives them in different places.

Legend:
[1] = target: T1, RhamD from Azotobacter vinlandii (Azotobacter vinelandii, UniProt C1DMY1); test: dehydration activity; assay type: biochemical; settings: kinetic data not shown
T1 sequence (C1DMY1 1-394): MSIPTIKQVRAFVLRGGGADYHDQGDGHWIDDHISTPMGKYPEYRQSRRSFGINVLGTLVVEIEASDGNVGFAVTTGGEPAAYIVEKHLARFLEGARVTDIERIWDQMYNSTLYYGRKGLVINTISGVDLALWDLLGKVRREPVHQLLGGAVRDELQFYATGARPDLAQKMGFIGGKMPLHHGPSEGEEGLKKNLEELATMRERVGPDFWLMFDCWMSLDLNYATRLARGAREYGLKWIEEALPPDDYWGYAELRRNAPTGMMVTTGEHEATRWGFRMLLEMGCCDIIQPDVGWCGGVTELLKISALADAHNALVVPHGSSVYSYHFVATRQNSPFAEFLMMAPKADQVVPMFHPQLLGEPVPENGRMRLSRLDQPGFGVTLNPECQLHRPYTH

[2] = target: RhamD from Gibberella zeae (Fusarium graminearum, UniProt D0VX14); settings: kinetic data not shown
Sequence of RhamD from Gibberella zeae (D0VX14 1-450): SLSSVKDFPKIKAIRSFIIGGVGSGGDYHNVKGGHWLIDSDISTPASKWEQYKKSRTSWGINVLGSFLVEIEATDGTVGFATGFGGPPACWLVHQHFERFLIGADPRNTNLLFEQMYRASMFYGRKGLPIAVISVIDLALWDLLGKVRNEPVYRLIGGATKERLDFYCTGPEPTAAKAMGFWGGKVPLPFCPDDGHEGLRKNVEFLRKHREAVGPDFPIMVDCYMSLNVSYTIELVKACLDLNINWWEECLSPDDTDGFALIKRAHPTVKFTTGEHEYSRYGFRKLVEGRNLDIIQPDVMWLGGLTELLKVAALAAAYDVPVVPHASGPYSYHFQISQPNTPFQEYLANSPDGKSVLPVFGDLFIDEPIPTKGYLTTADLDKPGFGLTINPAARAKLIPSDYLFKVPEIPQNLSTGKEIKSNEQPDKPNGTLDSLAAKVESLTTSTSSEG

[3] = target: the molecule itself; test: crystal structure
[4] = substrate: C[C@H](O)[C@H](O)[C@@H](O)[C@@H](O)C(=O)O; test: dehydration; assay type: biochemical, Escherichia coli; settings: 5 mM MgCl2, Tris-HCl pH 7.9 or K-Hepes pH 7.5, 25 °C
[5] = substrate: O=C(O)[C@H](O)[C@H](O)[C@@H](O)CO; test: dehydration; assay type: biochemical, Escherichia coli; settings: 5 mM MgCl2, Tris-HCl pH 7.9 or K-Hepes pH 7.5, 25 °C
[6] = substrate: O=C(O)[C@H](O)[C@H](O)[C@@H](O)[C@@H](O)CO; test: dehydration; assay type: biochemical, Escherichia coli; settings: 5 mM MgCl2, Tris-HCl pH 7.9 or K-Hepes pH 7.5, 25 °C
[7] = substrate: C[C@H](O)[C@H](O)[C@@H](O)[C@@H](O)C(=O)O; test: dehydration; assay type: biochemical, Salmonella enterica; settings: 5 mM MgCl2, Tris-HCl pH 7.9 or K-Hepes pH 7.5, 25 °C
[8] = substrate: O=C(O)[C@H](O)[C@H](O)[C@@H](O)CO; test: dehydration; assay type: biochemical, Salmonella enterica; settings: 5 mM MgCl2, Tris-HCl pH 7.9 or K-Hepes pH 7.5, 25 °C
[9] = substrate: O=C(O)[C@H](O)[C@H](O)[C@@H](O)[C@@H](O)CO; test: dehydration; assay type: biochemical, Salmonella enterica; settings: 5 mM MgCl2, Tris-HCl pH 7.9 or K-Hepes pH 7.5, 25 °C
[10] = target: the molecule itself; test: crystal structure; remark: listed apart in the source

C[C@H](O)[C@H](O)[C@@H](O)[C@@H](O)C(=O)O [L-rhamnonate]
dehydration activity [1]: Each of these homologues catalyzes the RhamD reaction
dehydration activity [2]: Each of these homologues catalyzes the RhamD reaction

B1: L-rhamnonate dehydratase (RhamD) from Escherichia coli K-12 (enzyme, E. coli K-12)
chain: MTLPKIKQVRAWFTGGATAEKGAGGGDYHDQGANHWIDDHIATPMSKYRDYEQSRQSFGINVLGTLVVEVEAENGQTGFAVSTAGEMGCFIVEKHLNRFIEGKCVSDIKLIHDQMLSATLYYSGSGGLVMNTISCVDLALWDLFGKVVGLPVYKLLGGAVRDEIQFYATGARPDLAKEMGFIGGKMPTHWGPHDGDAGIRKDAAMVADMREKCGEDFWLMLDCWMSQDVNYATKLAHACAPYNLKWIEECLPPQQYESYRELKRNAPVGMMVTSGEHHGTLQSFRTLSETGIDIMQPDVGWCGGLTTLVEIAAIAKSRGQLVVPHGSSVYSHHAVITFTNTPFSEFLMTSPDCSTMRPQFDPILLNEPVPVNGRIHKSVLDKPGFGVELNRDCNLKRPYSH
stoichiometry N [3]: 8
Km [4]: 150 ± 70 µM
kcat [4]: 3.2 ± 0.2 s⁻¹
kcat/Km [4]: 21000 M⁻¹ s⁻¹
Km [5]: 2000 ± 300 µM
kcat [5]: 0.6 ± 0.03 s⁻¹
kcat/Km [5]: 300 M⁻¹ s⁻¹
Km [6]: 150 ± 60 µM
kcat [6]: 0.2 ± 0.1 s⁻¹
kcat/Km [6]: 1300 M⁻¹ s⁻¹

B2: YfaW / ecRhamD (RhamD from E. coli K-12) (Escherichia coli K-12; H325N) (protein)
chain: MTLPKIKQVRAWFTGGATAEKGAGGGDYHDQGANHWIDDHIATPMSKYRDYEQSRQSFGINVLGTLVVEVEAENGQTGFAVSTAGEMGCFIVEKHLNRFIEGKCVSDIKLIHDQMLSATLYYSGSGGLVMNTISCVDLALWDLFGKVVGLPVYKLLGGAVRDEIQFYATGARPDLAKEMGFIGGKMPTHWGPHDGDAGIRKDAAMVADMREKCGEDFWLMLDCWMSQDVNYATKLAHACAPYNLKWIEECLPPQQYESYRELKRNAPVGMMVTSGEHHGTLQSFRTLSETGIDIMQPDVGWCGGLTTLVEIAAIAKSRGQLVVPNGSSVYSHHAVITFTNTPFSEFLMTSPDCSTMRPQFDPILLNEPVPVNGRIHKSVLDKPGFGVELNRDCNLKRPYSH
Km [4]: 300 ± 30 µM
kcat [4]: 0.0005 ± 0.0001 s⁻¹
kcat/Km [4]: 1.6 M⁻¹ s⁻¹

B3: YfaW / ecRhamD (RhamD from E. coli K-12) (Escherichia coli K-12; H277N) (protein)
chain: MTLPKIKQVRAWFTGGATAEKGAGGGDYHDQGANHWIDDHIATPMSKYRDYEQSRQSFGINVLGTLVVEVEAENGQTGFAVSTAGEMGCFIVEKHLNRFIEGKCVSDIKLIHDQMLSATLYYSGSGGLVMNTISCVDLALWDLFGKVVGLPVYKLLGGAVRDEIQFYATGARPDLAKEMGFIGGKMPTHWGPHDGDAGIRKDAAMVADMREKCGEDFWLMLDCWMSQDVNYATKLAHACAPYNLKWIEECLPPQQYESYRELKRNAPVGMMVTSGENHGTLQSFRTLSETGIDIMQPDVGWCGGLTTLVEIAAIAKSRGQLVVPHGSSVYSHHAVITFTNTPFSEFLMTSPDCSTMRPQFDPILLNEPVPVNGRIHKSVLDKPGFGVELNRDCNLKRPYSH
Km [4]: 8800 ± 900 µM
kcat [4]: 0.09 ± 0.01 s⁻¹
kcat/Km [4]: 10 M⁻¹ s⁻¹

B4: stRhamD (RhamD from S. typhimurium LT2) (Salmonella enterica subsp. enterica serovar Typhimurium str. LT2) (protein)
chain: MENIMTLPKIKHVRAWFIGGATAEKGAGGGDYHDQGGNHWIDDHIATPMSKYRDYEQSRQSFGINVLGTLIVEVEAENRQTGFAVSTAGEMGCFIVEKHLNRFIEGKCVSDIKLIHDQMLGATMYYSGSGGLVMNTISCVDLALWDLFGKVVGLPVYKLLGGAVRDEIQFYATGARPDLAKEMGFIGGKMPTHWGPHDGDAGIRKDAAMVADMREKCGPDFWLMLDCWMSQDVNYATKLAHACAPFNLKWIEECLPPQQYEGYRELKRNAPAGMMVTSGEHHGTLQSFRTLAETGIDIMQPDVGWCGGLTTLVEIAALAKSRGQLVVPHGSSVYSHHAVITFTNTPFSEFLMTSPDCSTLRPQFDPILLDEPVPVNGRIHKSVLDKPGFGVELNRDCHLKRPYSH
Km [7]: 250 ± 80 µM
kcat [7]: 3.9 ± 1.6 s⁻¹
kcat/Km [7]: 16000 M⁻¹ s⁻¹
Km [8]: 1600 ± 1200 µM
kcat [8]: 0.05 ± 0.03 s⁻¹
kcat/Km [8]: 30 M⁻¹ s⁻¹
Km [9]: 60 ± 40 µM
kcat [9]: 0.1 ± 0.06 s⁻¹
kcat/Km [9]: 1700 M⁻¹ s⁻¹

B5: L-rhamnonate dehydratase (RhamD) from Salmonella typhimurium LT2 (enzyme)
chain: ENIMTLPKIKHVRAWFIGGATAEKGAGGGDYHDQGGNHWIDDHIATPMSKYRDYEQSRQSFGINVLGTLIVEVEAENRQTGFAVSTAGEMGCFIVEKHLNRFIEGKCVSDIKLIHDQMLGATMYYSGSGGLVMNTISCVDLALWDLFGKVVGLPVYKLLGGAVRDEIQFYATGARPDLAKEMGFIGGKMPTHWGPHDGDAGIRKDAAMVADMREKCGPDFWLMLDCWMSQDVNYATKLAHACAPFNLKWIEECLPPQQYEGYRELKRNAPAGMMVTSGEHHGTLQSFRTLAETGIDIMQPDVGWCGGLTTLVEIAALAKSRGQLVVPHGSSVYSHHAVITFTNTPFSEFLMTSPDCSTLRPQFDPILLDEPVPVNGRIHKSVLDKPGFGVELNRDCHLKRPYSH
stoichiometry N [10]: 8
